Series [1] in a line: Quantum yield determination. The series is classed as physicochemical. Conditions: Table 5; in PBS. The method, boiled down: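 Relative quantum yields in PBS, probe absorbance adjusted below 0.1, references IR-783 (0.043), fluorescein (0.18), Cy3 (0.31). Excitation/emission ranges: PN(783) 730 nm/765–870 nm; PN(545) 515 nm/538–700 nm; PN(497) 450 nm/475–620 nm, maximum emission used. Triplicate, mean±SD.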

Series [2] concerns HT-29, a human colon carcinoma cell line. As to the kind of experiment: PN and peptide binding to cells (non-specific binding, FACS). The series is classed as cell-based. Conditions: HT-29 cells, 30 min at 37° C., FACS. As for the experimental part: HT-29, a human colon carcinoma cell line, was from the American Tissue Culture Collection and maintained according to their instructions. Cells were seeded on 24-well plates at 5×10^5 cells/well in culture medium (RPMI 1640 with 10% FBS) the day before the assay. The day of assay, medium was removed, wells rinsed twice with DPBS (+Ca, +Mg), and 100 μl of 2% FBS/DPBS (+Ca, +Mg) added. 100 μL of Nanoprobes (2 μM) in DPBS (+Ca, +Mg) was added to cells and incubated for 30 min at 37° C. (Probe concentrations were determined spectrophotometrically (783 nm, extinction coefficient of 314 471 cm^−1 M^−1 for IR-783; 497 nm, extinction coefficient of 68 000 cm^−1 M^−1 for Fluorescein; 545 nm, extinction coefficient of 150 000 cm^−1 M^−1 for Cy3). Cells were detached by Trypsin/EDTA and assayed for fluorescence by FACS (BD 7 laser LSR2 for nanoprobes with IR-783; BD 3 laser LSR2 for nanoprobes with Fluorescein or Cy3).

Series [3] can be described thus: PN and peptide size (volume, diameter) by FPLC gel filtration (Superdex 200, globular protein standards). The series is classed as physicochemical. Conditions: Table 5; globular protein equivalent molecular weight. The procedure:
DOTA-Lys-Cys(IR783)-NH2 is then dissolved in DMSO, with 2 equivalents of an NHS ester of PEG and 6 equivalents of DIPEA. The reaction was at room temperature for 5 days. Product was purified by reverse phase HPLC separation. Product molecular weight was by matrix-assisted laser desorption ionization time-of-flight mass spectrometry (MALDI-TOF MS), with product molecular volume by size exclusion FPLC using globular protein standards (GE Healthcare life science AKTApurifier 10).
The mass spec of low molecular weights (MW) were obtained by MS-ESI Micromass (Waters) and high MW molecules were determined through MALDI-TOF analyses at the Tufts University Core Facility. RP-HPLC (Varian ProStar detector and delivery modules) employed an eluant A (0.1% TFA/water) and eluant B (0.1% TFA and 9.9% water in acetonitrile). Probe size (volume) was determined by FPLC using an ÄKTA Purifier 10 and Superdex™ 200 10/300GL column (GE Healthcare) with a running buffer of 0.05 M sodium phosphate, 0.15 M NaCl (0.1% Tween, pH 7.2) and flow rate of 0.8 ml/min. Standards (GE Healthcare) were Ferritin, Ribonuclease A, Carbonic Anhydrase, and Conalbumin and Blue Dextran 2000. To obtain probe volumes, Mr (apparent molecular weight based on size exclusion retention) was plotted versus Kav. Kav=(Ve−Vo)/(Vt−Vo), Vt=total volume, Ve=elution volume, Vo=void volume.
The column was calibrated with globular protein standards, and globular protein equivalent molecular weights (in kDa) were obtained (Table 5, column 5). These were converted to PN diameters in nm using the relationship: Radius in nm=[…] where M is the molecular weight of a globular protein expressed in daltons (see Erickson, “Size and Shape of Protein Molecules at the Nanometer Level Determined by Sedimentation, Gel Filtration, and Electron Microscopy”, Biological Procedures Online 2009, 11(1): 32-50). PN's diameters ranged from 3.0 to 11.8 nm (see FIG. 23a). Using PEG's of 5 kDa and 30 kDa, selected for their low polydispersity, PN's were synthesized using IR-783, Cy3 and Fluorescein (see FIG. 22a) and their sizes determined (see FIGS. 23a, 23b, 23c). With the 5 kDa PEG and these three fluorochromes (see the magenta chromatograms in FIGS. 22a, 23b and 23c) PN diameters were 4.3 nm. With the 30 kDa PEG and these three fluorochromes (blue chromatograms, 23a, 23b, 23c), PN diameters were now 10.0 nm. For reference, the diameter of a 67 kDa albumin determined by this method was 5.4 nm.

Series [4] concerns mCherry/HT29 tumor sections. Briefly: Confocal microscopy of tumor sections (tumor retention phase). Conditions: 48 hours post IV injection. Type of series: in vivo, mouse. As for the experimental part:
The mCherry-HT-29 tumor sample was collected at 48 hours post IV injection with PN(497)10.0, and then cryosectioned with thickness of 5 μm. The tumor section was fixed with 4% PFA, mounted with 90% glycerol/10% PBS (at pH 8.5 for best fluorescein fluorescence), and stained with DAPI. Confocal imaging was performed on a Zeiss LSM510 laser scanning confocal microscope (Zeiss Axiophot, Carl Zeiss, Jena, Germany). A 405 nm diode Laser, 488 nm argon laser, and 561 nm diode laser were used for the excitation of DAPI, fluorescein, and mCherry, respectively. A primary dichroic HFT 405/488/561 was used in combination with an LP420 emission filter for DAPI, BP505-530 for fluorescein, and LP575 for mCherry. Images were analyzed with ImageJ64.

Consider “(DOTA)Lys(PEG30K)-Cys(Cy3) [PN(545)10.0]”, for which the “Quant. Yield” value in series [1] was 0.61. Besides, in series [2], the “Cell NSB (percent of cells with fluorescence higher than unstained cell)” value is recorded as 15%. For the same substance, the “Volume FPLC” value in series [3] is on record as 435 kDa. Also, the “cellular localisation in tumor sections” value in series [4] is given as “seen in mCherry/HT29 cells”.

The values above are taken from US20150258217A1, “Methods of Synthesizing and Using Peg-Like Fluorochromes” (THE GENERAL HOSPITAL CORPORATION, priority 2012, published 2015).
